Measurements taken from patent US20210292396A1.

Assays:
Test in all cases: cell-based or functional assay
[1] = biological target: Env of HIV isolate CE703010217.B6 (clade C) (HIV)
[2] = biological target: Env of HIV isolate 426c (clade C) (HIV)
[3] = biological target: Env of HIV isolate QH0515.01 (clade B) (HIV)
[4] = biological target: HIV Env of isolate 26191-2.48 (HIV)
[5] = biological target: Env of HIV isolate 269-12 (clade AG) (HIV)
[6] = biological target: HIV Env of isolate ZM109.4 (HIV)
[7] = biological target: HIV Env of isolate CE703010217.B6 (HIV)
[8] = biological target: Env of HIV isolate TZA125.17 (clade C) (HIV)
[9] = biological target: Env of HIV isolate 25711-2.4 (clade C) (HIV)
[10] = biological target: HIV Env of isolate ZM53M.PB12 (HIV)
[11] = biological target: HIV Env of isolate 6240_08_TA5_4622 (HIV)
[12] = biological target: HIV Env of isolate HIV-0013095-2.11 (HIV)
[13] = biological target: HIV Env of isolate 246F_C1G (HIV)
[14] = biological target: HIV Env of isolate 6811.v7.c18 (HIV)
[15] = biological target: HIV Env of isolate HIV-001428-2.42 (HIV)
[16] = biological target: HIV Env of isolate REJO4541.67 (HIV)
[17] = biological target: HIV Env of isolate Ce2060_G9 (HIV)
[18] = biological target: HIV Env of isolate 3301.v1.c24 (HIV)
[19] = biological target: HIV Env of isolate 6952.v1.c20 (HIV)
[20] = biological target: HIV Env of isolate AC10.0.29 (HIV)
[21] = biological target: HIV Env of isolate 928-28 (HIV)
[22] = biological target: HIV Env of isolate 191084_B7-19 (HIV)
[23] = biological target: HIV Env of isolate QH0692.42 (HIV)
[24] = biological target: HIV Env of isolate 1006_11_C3_1601 (HIV)
[25] = biological target: HIV Env of isolate X1193_c1 (HIV)
[26] = biological target: HIV Env of isolate SC422661.8 (HIV)
[27] = biological target: HIV Env of isolate 249M_B10 (HIV)
[28] = biological target: HIV Env of isolate 0260.v5.c36 (HIV)
[29] = biological target: HIV Env of isolate TRO.11 (HIV)
[30] = biological target: HIV Env of isolate Q23.17 (HIV)
[31] = biological target: HIV Env of isolate SC05_8C11_2344 (HIV)
[32] = biological target: HIV Env of isolate 6540.v4.c1 (HIV)
[33] = biological target: HIV Env of isolate CAP45.2.00.G3 (HIV)
[34] = biological target: HIV Env of isolate 6535.3 (HIV)
[35] = biological target: HIV Env of isolate CNE52 (HIV)
[36] = biological target: HIV Env of isolate CNE5 (HIV)
[37] = biological target: HIV Env of isolate BJOX028000.10.3 (HIV)
[38] = biological target: HIV Env of isolate 1012_11_TC21_3257 (HIV)
[39] = biological target: HIV Env of isolate X2088_c9 (HIV)
[40] = biological target: HIV Env of isolate T211-9 (HIV)
[41] = biological target: HIV Env of isolate Ce1172_H1 (HIV)
[42] = biological target: HIV Env of isolate BJOX009000.02.4 (HIV)
[43] = biological target: HIV Env of isolate P1981_C5_3 (HIV)
[44] = biological target: HIV Env of isolate 1394C9G1(Rev-) (HIV)
[45] = biological target: HIV Env of isolate WEAU_d15_410_5017 (HIV)
[46] = biological target: HIV Env of isolate ZM249M.PL1 (HIV)
[47] = biological target: HIV Env of isolate X1254_c3 (HIV)
[48] = biological target: HIV Env of isolate 6041.v3.c23 (HIV)
[49] = biological target: HIV Env of isolate HIV-16055-2.3 (HIV)
[50] = biological target: HIV Env of isolate 62357_14_D3_4589 (HIV)
[51] = biological target: HIV Env of isolate ZM109F.PB4 (HIV)
[52] = biological target: HIV Env of isolate 0330.v4.c3 (HIV)

B1: ePGT121.18 (ePGT121.18.H1 VH and ePGT121.17.L1 VL) (antibody, V domains shown)
VH: QMQLQESGPGLVKPGETLSLTCSVSGASISSSYWSWLRETPGKGLEWIGYTHHSGDTNYAPSLKSRVHLGLHPSKNQVSLSLTSVTAADTAVYYCARTLHGRRIYGVVAFNEYYTYFYWPTWGKGTQVTVSS
VL: SDISVAPGETVRITCGGESIGSRAVQWYQHRPGQAPRLIIYNNQDRPPGIPERFSGSPDIDFGTTATLTISNVEAGDEATYYCHIWDSRRPTNWELGPGTTLTVL
**Q.** With B1 as the binder, how does the IC50, pseudovirus neutralization [1] read?
**A.** The IC50, pseudovirus neutralization was 0.002 µg/mL.

**Q.** What about the IC50, pseudovirus neutralization [2] of the same binder?
**A.** The IC50, pseudovirus neutralization was 0.065 µg/mL.

**Q.** And the IC50, pseudovirus neutralization [3]?
**A.** The IC50, pseudovirus neutralization was 0.007 µg/mL.

**Q.** And the IC80, pseudovirus neutralization (M1) [4]?
**A.** Its IC80, pseudovirus neutralization (M1) is 0.008 µg/mL.

**Q.** What about the IC80, pseudovirus neutralization (M2) [4] of the same binder?
**A.** Its IC80, pseudovirus neutralization (M2) is 0.013 µg/mL.

**Q.** And the IC50, pseudovirus neutralization [5]?
**A.** The IC50, pseudovirus neutralization was 0.003 µg/mL.

**Q.** And the IC80, pseudovirus neutralization (M1) [6]?
**A.** The IC80, pseudovirus neutralization (M1) was > 50 µg/mL.

**Q.** And the IC80, pseudovirus neutralization (M2) [6]?
**A.** The IC80, pseudovirus neutralization (M2) was > 50 µg/mL.

**Q.** What about the IC80, pseudovirus neutralization (M1) [7] of the same binder?
**A.** The IC80, pseudovirus neutralization (M1) was 0.008 µg/mL.

**Q.** And the IC80, pseudovirus neutralization (M2) [7]?
**A.** Its IC80, pseudovirus neutralization (M2) is 0.008 µg/mL.

**Q.** And the IC50, pseudovirus neutralization [8]?
**A.** Its IC50, pseudovirus neutralization is 0.028 µg/mL.

**Q.** And the IC50, pseudovirus neutralization [9]?
**A.** Its IC50, pseudovirus neutralization is 0.002 µg/mL.

B2: ePGT121.18.17 (ePGT121.18.H17 VH and ePGT121.17.L1 VL) (antibody, V domains shown)
VH: QMQLQESGPGLVKPGETLSLTCSVSGASISSSYWSWLRETPGKGLEWIGYTHHSGDTNYAPSLKSRVTIGLDPSKNQVSLSLTSVTAADTAVYYCARTLHGRRIYGVVAFNEYYTYFYWPTWGKGTQVTVSS
VL: SDISVAPGETVRITCGGESIGSRAVQWYQHRPGQAPRLIIYNNQDRPPGIPERFSGSPDIDFGTTATLTISNVEAGDEATYYCHIWDSRRPTNWELGPGTTLTVL
**Q.** B2 was tested. Which IC50, pseudovirus neutralization [1] did it give?
**A.** Its IC50, pseudovirus neutralization is 0.005 µg/mL.

**Q.** And the IC50, pseudovirus neutralization [2]?
**A.** The IC50, pseudovirus neutralization was 0.26 µg/mL.

**Q.** What about the IC50, pseudovirus neutralization [3] of the same binder?
**A.** The IC50, pseudovirus neutralization was 0.035 µg/mL.

**Q.** What about the IC80, pseudovirus neutralization [4] of the same binder?
**A.** Its IC80, pseudovirus neutralization is 0.025 µg/mL.

**Q.** What about the IC50, pseudovirus neutralization [5] of the same binder?
**A.** The IC50, pseudovirus neutralization was 0.01 µg/mL.

**Q.** And the IC80, pseudovirus neutralization [6]?
**A.** Its IC80, pseudovirus neutralization is > 50 µg/mL.

**Q.** What about the IC80, pseudovirus neutralization [7] of the same binder?
**A.** The IC80, pseudovirus neutralization was 0.016 µg/mL.

**Q.** What about the IC50, pseudovirus neutralization [8] of the same binder?
**A.** Its IC50, pseudovirus neutralization is 0.18 µg/mL.

**Q.** And the IC50, pseudovirus neutralization [9]?
**A.** Its IC50, pseudovirus neutralization is 0.006 µg/mL.

B3: ePGT121.15 (ePGT121.15.H6 VH and ePGT121.15.L1 VL) (antibody, V domains shown)
VH: QMQLQESGPGLVKPGETLSLTCSVSGASISSSYWSWLRETPGKGLEWIGYTHHSGDTNYAPSLKSRVHLGLHPSKNQVSLSLTSVTAADTAVYYCARTLHGRRIYGVVAFNEFFTYFYWEVWGKGTQVTVSS
VL: SDISVAPGETVRISCGGESIGSRAVQWYQHRAGQAPKLIIYNNQDRPPGIPERFSGSPDIDFGTTATLTITNVEAGDEATYYCHIWDSRRPTNWVFGGGTTLTVL
**Q.** Which IC50, pseudovirus neutralization [1] does the source give for B3 here?
**A.** Its IC50, pseudovirus neutralization is 0.004 µg/mL.

**Q.** What about the IC50, pseudovirus neutralization [2] of the same binder?
**A.** Its IC50, pseudovirus neutralization is 0.385 µg/mL.

**Q.** What about the IC50, pseudovirus neutralization [3] of the same binder?
**A.** The IC50, pseudovirus neutralization was 0.014 µg/mL.

**Q.** And the IC80, pseudovirus neutralization [4]?
**A.** The IC80, pseudovirus neutralization was 0.015 µg/mL.

**Q.** What about the IC50, pseudovirus neutralization [5] of the same binder?
**A.** Its IC50, pseudovirus neutralization is 0.011 µg/mL.

**Q.** And the IC80, pseudovirus neutralization [6]?
**A.** The IC80, pseudovirus neutralization was > 50 µg/mL.

**Q.** What about the IC80, pseudovirus neutralization [7] of the same binder?
**A.** The IC80, pseudovirus neutralization was 0.012 µg/mL.

**Q.** And the IC50, pseudovirus neutralization [8]?
**A.** Its IC50, pseudovirus neutralization is 0.07 µg/mL.

**Q.** And the IC50, pseudovirus neutralization [9]?
**A.** Its IC50, pseudovirus neutralization is 0.004 µg/mL.

B4: ePGT121.15.H2.L1 (antibody, V domains shown)
VH: QMQLQESGPGLVKPGETLSLTCSVSGASISSSYWSWLRETPGKGLEWIGYTHHSGDTNYAPSLKSRVHLGLHPSKNQVSLSLTSVTAADTAVYYCARTLHGRRIYGVVAFNEWFTYFYWEVWGKGTQVTVSS
VL: SDISVAPGETVRISCGGESIGSRAVQWYQHRAGQAPKLIIYNNQDRPPGIPERFSGSPDIDFGTTATLTITNVEAGDEATYYCHIWDSRRPTNWVFGGGTTLTVL
**Q.** What does the source list for B4?
**A.** neutralization (Table 6 value) [10]: 0.00177; neutralization (Table 6 value) [11]: 0.004; neutralization (Table 6 value) [12]: 0.698; neutralization (Table 6 value) [13]: 0.0024; neutralization (Table 6 value) [14]: 0.00194; neutralization (Table 6 value) [15]: 0.00136; neutralization (Table 6 value) [16]: 0.435; neutralization (Table 6 value) [17]: 0.0132; neutralization (Table 6 value) [18]: 0.00106; neutralization (Table 6 value) [19]: 0.000842; neutralization (Table 6 value) [20]: 0.00196; neutralization (Table 6 value) [21]: 0.0488; neutralization (Table 6 value) [22]: 0.00196; neutralization (Table 6 value) [23]: 0.0116; neutralization (Table 6 value) [24]: 0.00175; neutralization (Table 6 value) [25]: 0.000174; neutralization (Table 6 value) [26]: 0.00145; neutralization (Table 6 value) [27]: 0.00271; neutralization (Table 6 value) [28]: 0.00199; neutralization (Table 6 value) [29]: 0.00115; neutralization (Table 6 value) [30]: 0.00106; neutralization (Table 6 value) [31]: 0.00664; neutralization (Table 6 value) [32]: 0.652; neutralization (Table 6 value) [33]: 9e-06; neutralization (Table 6 value) [34]: 0.00104; neutralization (Table 6 value) [35]: 0.0469; neutralization (Table 6 value) [36]: 0.743; neutralization (Table 6 value) [37]: 0.00577; neutralization (Table 6 value) [38]: 0.00172; neutralization (Table 6 value) [39]: 0.000985; neutralization (Table 6 value) [40]: 0.00508; neutralization (Table 6 value) [41]: 0.000582; neutralization (Table 6 value) [42]: 0.0259; neutralization (Table 6 value) [43]: 0.000449; neutralization (Table 6 value) [44]: 0.00203; neutralization (Table 6 value) [45]: 0.00168; neutralization (Table 6 value) [46]: 0.00837; neutralization (Table 6 value) [47]: 0.00235; neutralization (Table 6 value) [48]: 0.275; neutralization (Table 6 value) [49]: 0.698; neutralization (Table 6 value) [50]: 0.0109; neutralization (Table 6 value) [51]: 0.873; neutralization (Table 6 value) [52]: 0.0053
